Reference: patent US20140329787A1, “PHYTOPHTHORA PHOSPHOLIPASE C” (Deakin University, priority 2011, published 2014)
“Also recorded” adds a separate entry of the source.

Assays:
P. cinnamomi = assay: Hyphal growth rate; assay type: cell-based, Phytophthora cinnamomi; conditions: data not shown
Phytophthora cinnamomi = assay type: cell-based
P. sojae = assay: Hyphal growth rate; assay type: cell-based, Phytophthora sojae; conditions: data not shown
[1] = Hydrolysis of PIPx, neutral-lipid TLC; assay type: biochemical; conditions: 0.2 mg/ml enzyme; listed as Alt-PLC1
Description: Lipid samples of 0.5 μl were applied to silica 60 TLC plates and allowed to dry prior to the addition of more sample. Neutral lipids were applied to 10×20 cm pre-absorption zone-bearing silica-60 plates (Sigma-Aldrich, USA) and resolved in a solvent mixture of hexane:diethyl ether:acetic acid (9:1:0.5). Phospholipids were resolved on 20×20 cm silica-60 plates (Merck, Australia), without a pre-absorption zone, in a solvent mixture of chloroform:methanol:acetic acid:water (90:40:12:2). Lipids were detected by spraying the dried TLC plates with a solution of 0.05% rhodamine B (Sigma) in methanol and destaining was performed by repeated spraying with 5 M KOH. Lipid spots were then visualised following UV excitation at 312 nm.
Alt-PLC and Alt-PLC2 were refolded into buffer A4 at a concentration of 0.2 mg/ml and a hydrolysis reaction was performed using PIPx (mixed phosphatidylinositols, Sigma) as the substrate. The reaction was performed as described previously and the resultant neutral lipids were extracted by diethyl ether phase extraction. The samples were analysed by neutral-lipid thin-layer chromatography, on silica 60 plates with a pre-absorption zone; the mobile phase employed was hexane: diethyl ether: acetic acid (9:1:0.5).

[2] = IP3 production from bovine brain phosphatidylinositols, ESI-MS; assay type: biochemical; conditions: CaCl2 or EDTA; three protein batches
Description: All mass spectra were produced using a 6210 MSDTOF mass spectrometer (Agilent Technologies, Australia) with the following conditions: drying gas, nitrogen ([…], 350° C.); nebulizer gas, nitrogen (16 psi); capillary voltage, ±4.0 kV; vaporizer temperature, 350° C.; and cone voltage, 60V, 5 μL.
To test for phospholipase C-like function of Alt-PLC, electrospray ionization mass spectrometry (ESI-MS) was utilized to identify of inositol(1,4,5)triphosphate (IP3) produced from reactions of Alt-PLC with lipids.
Three separate batches of protein (purified from independent transformations) were prepared and reacted with a mixture of phosphatidylinositols from bovine brain in the presence of CaCl2 or in the presence of EDTA. Chloroform phase-extraction was performed and the aqueous phase analysed for the presence of IP3 by ESI-MS.

[3] = In-solution hydrolysis of diC8-PI(4,5)P2, products by ESI-MS, TLC and NMR; assay type: biochemical; conditions: with calcium, 60 min
Description: Five milligrams of lyophilised, synthetic 1,2-dioctanol-D-myo-phosphatidylinositol(4,5)bisphosphate (diC8-PI(4,5)P2: Echelon Biosciences, USA) was resuspended in 500 μl of 20 mM tris pH:8.0; to this, 100 μl of 1M CaCl2 and 400 μl of refolded Alt-PLC (0.1 mg/ml) in buffer A4 were added and the reaction allowed to proceed for 60 min. The reaction was stopped by phase separation with the addition of 3.75 ml of chloroform:methanol:12N HCl (2:4:0.1) and mixed thoroughly before the addition of 1.25 ml of chloroform. The solution was then vortexed for 30 sec before addition of 1.25 ml of ddH2O and then further vortexed for 30 seconds. The sample was then centrifuged at 1000 rpm for 10 min in a swinging bucket rotor at 4° C. The upper aqueous layer (containing inositols) and the lower chloroform layer (containing all lipids and phospholipids) were separately lyophilised in glass tubes and stored at −80° C. for further analysis. Further separation of polar and non-polar lipids, developed by the hydrolysis reaction, was performed by resuspending the lyophilised, chloroform layer in 1 mil 75% methanol and then adding 1 ml of n-hexane. […]
The unusual nature of this double hydrolysis led the Applicant to perform NMR on the MAG and acyl arg fractions as an additional confirmation of the ESI-MS results. […] NMR spectra were recorded at 400 MHz at −55° C. […]

E. coli = assay: Growth curves of E. coli expressing Alt-PLC and truncations; assay type: cell-based; conditions: relative to E. coli not expressing Alt-PLC
Description: An analysis of function of the Alt-PLC truncations was performed using growth curves of Alt-PLC expressing E. coli cells (FIG. 28).
Therefore, growth curves of E. coli expressing Alt-PLC and the truncations allow determination of Alt-PLC function in vivo.

Row | Molecule | hyphal growth rate (P. cinnamomi) | PIP2 level and distribution in hyphae (Phytophthora cinnamomi) | hyphal growth rate (P. sojae) | monoacylglycerol production / phospholipase C activity level in vitro [1] | IP3 production (m/z 160.6) [2] | products of hydrolysis [3] | growth of expressing E. coli (function in vivo) (E. coli)
1 | COc1ccc2c(c1)CC[C@@H]1[C@@H]2CC[C@]2(C)[C@@H](NCCCCCCN3C(=O)C=CC3=O)CC[C@@H]12 [U-73122] | markedly reduces hyphal growth rate | PIP2 increased; also recorded: PIP2 showed an almost uniform membrane distribution, indicating uncontrolled accumulation | markedly reduces hyphal growth rate | – | – | – | –
2 | Alt-PLC: Phytophthora sojae alternative phospholipase C, SEQ ID NO: 5; codon optimised, his-tagged, expressed in E. coli (protein, listed as Phytophthora sojae, His tag, codon optimised, his-tagged, expressed in E. coli) MASGWRQKPRLDPWDPPSPPPLLEEAAPKPKPKTSRFSRRSTRAKSHARQQAQHVELEVEEHAEQRDRDKRRSLLASMFGERAQSRASRSSSDASALQSQTQTLVQREKAFRLVRHGSDPLLNDAFYATQVQVGNFVKMGWLTKQGHMWKSWKTRFFVLFSDGTFAYYKNKGRKKIKGCMQLNDGVVSVQHVDIRLADKAYVFQIEKGFYKLLCYCCSQFEAELWVAALRSVRRVAPPCYEMDLTATEEKAGSNAVTRHLNKIFITDKQIAKRLAEFKANTHDHSYAAIHNFIVELDDAIIDRHHLEFYQDAEIELLPGNELVRLIRRHVEDRVFIPLYAEAYASLETDKVKTRRSNLEQHLKVLKQKTQADFGISKDLSVCNWKQAISVVNMLDCVSLPTHKFEVILSAGKAIMELIAQYNGELFEVSDEMLTAIFRYVVTMSSLSDLPTLRALLKYGYQHHPASQNKANVVTAFLNAIKWVECFEAGDESYQFDSLALAGSRVSVSISTNDVGIQFTTDGNGRGAIVYNIRKQSQAALSAAIVPGLSLIAINHEPVIALEFAVKIDYSHRIEVDKSASYLGSQMPNSSWKMVDKDDHVSRSARPGSVDDLIRELVAGTEVDLVDVVSFVLFLDSFSSLNEVVDRLSAHVRNGVKSHGLIRLFIVVLLFRQSETKEADDLRDRFYSLISLNIDAKDKLVPLVEEYMSLYKEYFSLRGAGNYAVNYQAIPGMMSKVYGMESGFEPVSSGPFSAHLHRFVDAERWAEQCTLLTHAVFCKIPVRDFIPTGSKKKHSVEFTSIKRWFQHISAFVINAVLVQNTPEERAEVISFYLKLSLDAKKMMNEMQLLSDKGCREMNRLMRKTANPSMPYIGLYLQGFVGLNELPAFDKEGLVNANRLRRMGELAMEILHRQSVAYTLQHDEDVNKLLHVSLPYSSEESRYARSLELEPREADAIPLSDRGSYTLIDDDVDLENEVRESIGGDGTFGFRQWIRKQQVVHRNRSRSSVIALYEWV | – | – | – | detection of monoacylglycerol production; also recorded: higher activity level in vitro than Alt-PLC2 | IP3 was produced in the Ca^2+-activated reactions, but was not produced in the presence of EDTA | 1-monacylglycerol, a free fatty acid (FFA) and inositol(1,4,5)triphosphate | characteristic reduced growth of the bacteria
